According to the MegaScale stability set (Tsuboyama et al. 2023):

B1: EEHEE_rd4_0647 (parent)
chain: MQVTWGNVTVTFSNPEEAKKYAEKVARKLGGQVELHNGQFRIK

Variants of: B1
Experiment: folding stability dG (cDNA display proteolysis); higher = more stable
Conditions: PBS, room temperature

Folding stability dG [kcal/mol]: each site, then its substitutions
N14: G 2.12 | R 2.47 | W 1.76 | D 2.79 | I 2.08 | Y 1.91 | E 2.2 | Q 2.2 | T 2.89 | L 2.23 | K 2.42 | M 1.99 | P 0.65 | A 2.21 | H 2.38 | F 1.98 | V 2.05 | S 2.86
E16: P 1.4 | K 2.52 | A 2.78 | Q 2.7 | L 2.78 | V 2.81 | D 2.79 | R 2.55 | H 2.7 | T 2.75 | C 3.18 | I 2.81 | W 2.75 | Y 2.77 | F 2.71 | M 2.76 | G 2.54 | N 2.56 | S 2.68
T11: E 2.34 | L 2.62 | D 1.99 | P 1.65 | N 2.58 | C 3.51 | H 2.72 | A 2.38 | M 2.64 | F 3 | Q 2.53 | I 2.71 | K 2.49 | R 2.62 | V 2.59 | Y 3.02 | G 2.05 | W 3.23 | S 2.73
P15: I 2.99 | F 3.41 | S 2.79 | M 3.03 | N 2.29 | W 3.08 | C 3.26 | Y 3.5 | E 2.54 | T 2.83 | G 2.46 | K 2.83 | D 1.92 | A 2.89 | Q 2.7 | R 2.78 | V 2.93 | L 2.77 | H 2.88
S13: V 2.51 | A 2.8 | Y 2.38 | T 2.83 | E 2.65 | N 2.79 | W 2.34 | L 2.57 | I 2.52 | G 2.5 | M 2.6 | K 2.86 | H 2.62 | Q 2.71 | P 2.58 | F 2.49 | R 2.81 | D 2.75 | C 3.28
E17: C 3.18 | I 2.66 | F 2.47 | Y 2.58 | R 2.62 | W 2.53 | M 2.83 | L 2.84 | G 1.97 | K 2.69 | S 2.73 | N 2.47 | V 2.64 | H 2.7 | A 2.93 | Q 2.76 | T 2.74 | P 1.01 | D 2.92
F12: E -0.423 | L 1.96 | T 0.01 | P -0.871 | H 0.464 | R 0.663 | Q 0.017 | K 0.98 | A 0.449 | G -0.079 | N -0.258 | C 2.49 | V 0.887 | I 1.43 | S -0.107 | M 1.38 | W 1.18 | Y 1.28
T9: Y 1.85 | Q 1.84 | V 2.84 | W 1.78 | S 2.26 | R 2.06 | P 0.422
V10: M 2.67 | S 1.23 | D 0.472 | R 2.65 | L 2.76 | K 2.66 | I 2.94 | E 1.5 | T 1.74 | Y 2.7 | N 1.2 | H 2.15 | Q 1.85 | C 3.62 | P -0.399 | W 2.84 | G 0.582 | A 1.97 | F 2.53
A18: G 1.05 | D -0.206 | M 0.885 | F 1.05 | C 1.92 | E 0.034 | K 0.212 | I 0.86 | H 0.323 | L 1
